Assay [1] concerns the target TopBP1 BRCT5 (UniProt Q92547). Description: biotin-peptide (Ser304) pull-down of purified GST-BRCT5. The conditions noted are these: reference: nonphosphorylated Ser304 peptide; sites S304.
Assay [2] deals with TopBP1 (UniProt Q92547). The assay is described as follows: biotin-peptide streptavidin pull-down from nuclear extract. The settings on record: reference: nonphosphorylated peptide; sites S304.
Assay [3] deals with TopBP1 BRCT domains 4 and 5 (UniProt Q92547). The assay is described as follows: biotin-peptide pull-down of purified GST-BRCT4-5. The conditions noted are these: reference: nonphosphorylated peptide; sites S304.
Assay [4] has as its target TopBP1 BRCT5 (UniProt Q92547). Description: GST-BRCT5 pull-down of SFB-BLM from lysate. The conditions noted are these: reference: wild type; sites S304.
Assay [5] addresses TopBP1 (UniProt Q92547). The assay is described as follows: GFP-BLM pull-down, western blot. The conditions noted are these: reference: wild type; sites S304.
The target of assay [6] is TopBP1 (UniProt Q92547). Description: GFP-BLM pull-down, western blot. The settings on record: reference: wild type; sites S304. The source holds these as a separate data set.
In assay [7] the target is TopBP1 (UniProt Q92547). Description: GFP-BLM pull-down, western blot. The conditions noted are these: reference: wild type; sites S304. This is another data set of the same source.

Consider three substances from paper PMC4374139.

For the substance BLM (from UniProt P54132) pS304 peptide, in the assay with TopBP1 BRCT5 [1], the “binding against the reference” value is recorded as “gained”.

Turning to “BLM 297-311 (from UniProt P54132) pS304 peptide”, the “binding against the reference” value (with TopBP1 [2]; in assay [3]) was “gained” throughout.

In the case of BLM (from UniProt P54132) S304A, the “binding against the reference” value in the assay with TopBP1 BRCT5 [4] is “weaker”; in the assay with TopBP1 [5] it was “lost”; with TopBP1 [6] it was “weaker”; in the assay with TopBP1 [7], “weaker”.
